We go through 20 molecules from paper PMC9253517 (The Journal of Experimental Medicine, 2022).

Test [1] concerns the target T1, SARS-CoV-2 Wuhan-Hu-1 RBD (SARS-CoV-2, Wuhan-Hu-1 (GenBank …, UniProt P0DTC2)). The test is described as follows: cell-based or functional assay.
Test [2] addresses T1, SARS-CoV-2 Wuhan-Hu-1 RBD. The test is described as follows: BLI. Particulars: both partners purified.

B1: JR062 (antibody, V domains shown)
VH: EVQLVESGGGLIQPGGSLRLSCAASGFSVSNNYMNWVRQAPGKGLEWLSVIYNAGTTYYAGSVKGRFTISKDNSKNTLYLQLNSLRPEDTAVYYCARGHTGVAALMTGAFDIWGQGTMVTVSS
VL: QSALTQPPSASGSPGQSVTISCTGTSSDVGGYDYVSWYQQYPGKAPKLMIYEVSKRPSGVPDRFSGSKSGNTASLTVSGLQAEDEADYYCSSYAGNNNWVFGGGTKLTVL
For the molecule B1, the “neutralisation IC50, Wuhan-Hu-1 pseudovirus” value (from here on “neutralisation IC50”) in test [1] worked out at 0.0029 µg/mL. In test [2], the binding result is given as “binds”.

B2: JR179 (antibody, V domains shown)
VH: QVQLVQSGAEVKKPGASVKVSCKASGYTFSSFAISWVRQAPGQGLEWMGWISAYNGNTNYAQNLQGRVTMTTDTSTSTVYMELRSLRSDDTAVYYCAREAGLTGNLDYWGQGTLVTVSS
VL: SYELTQPPSVSVAPGQTARITCGGNNIGSKNVHWYQQKPGQAPVVVVYDDSDRPSGIPERFSGSNSGNTATLTISRVEAGDEADYYCQVWDSRSYHHVVFGGGTKLTVL
B2: the “neutralisation IC50” value in test [1] is above 1 µg/mL. The binding result in test [2] is given as “binds”.

B3: JR095 (antibody, V domains shown)
VH: VQLVESGGGVVQPGRSLRLSCAASGFTFSRYAMHWVRQAPGKGLQWVAIISYDGSNKYYADSVKGRFTISRDNSKNTLYLQMNSLRAEDTAVYYCARHITGTDYWGQGTLVTVSS
VL: DIQMTQSPSSLSASVGDRVTITCRASQGISIYLAWFQQKPGKAPKSLIYAASNLQSGVPSKFSGSGSGTDFTLTISSLQPEDFATYYCQQYDSYPITFGQGTRLEIK
Regarding B3, in test [1], the “neutralisation IC50” value was above 1 µg/mL. Further, the binding result in test [2] was “binds”.

B4: JR307 (antibody, V domains shown)
VH: EVQLVESGGGLVQPGGSLRLSCEVSGFTFSNYWMHWVRQAPGKGLVWVSRVDSDGNSTTYADSVNGRFTISRDNAKNTLYLQMKSLRAEDTAIYYCTRDCENCRHWYFDLWGRGTLVTVS
VL: SYELTQPPSVSVTPGQTARIACGGNNIGTKGVHWYQQRPGQAPVLVVYDDENRPSGIPERFSGSNSGDTATLIITWVEAGDEADYYCQVWHGLSDHPVFGGGTRLTVL
Consider B4, for which the “neutralisation IC50” value in test [1] was above 1 µg/mL. Besides, the binding result in test [2] was “binds”.

B5: JR070 (antibody, V domains shown)
VH: QLVQSGPEVKKPGTSVKVSCKASGFTFSSSAMQWVRQARGQGLEWIGWIVVGSGNTNYAQKFQERVTISRDMSTSTAYMEVSSLTSEDAAVYYCAAPNCSRTTCSDGFDIWGQGTMVTVSS
VL: EIVLTQSPGTLSLSPGERATLSCRASQSVRSSYLAWYQQKPGQAPRLLIYGASSRATGIPDRFSGSGSGTDFTVTISRLEPEDFAVYYCQQYGNSPWTFGQGTKVEIK
On to B5, for which the “neutralisation IC50” value in test [1] is 0.00193 µg/mL. Also, the binding result in test [2] is given as “binds”.

B6: JR318 (antibody, V domains shown)
VH: QVQLVQSGAEVKSPGASVKVSCKASGYTFTSYDINWVRQATGQGLEWMGWMNPNSGNTDYAQKFQGRVTMTRDTSISTAYMELSSLRSEDTAIYYCARRSGYYNFGVGTRTNYYYYGMDVWGQGTTVTVSS
VL: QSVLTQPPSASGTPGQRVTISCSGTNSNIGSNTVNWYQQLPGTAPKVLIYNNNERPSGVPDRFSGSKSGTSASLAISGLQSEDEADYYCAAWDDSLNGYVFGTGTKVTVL
As for B6, the “neutralisation IC50” value in test [1] stood at 0.00652 µg/mL. Also, in test [2], the binding result is “binds”.

B7: JR081 (antibody, V domains shown)
VH: QVQLVQSGAEVKKPGASVKVSCKASGYIFTAYYMHWVRQAPGQGLEWMGWINPMSGATNYAQRFQGRVTMTRVTMTRDTSITTAYMELSRLRSDDTAVYYCARVNHIVGVTSSDPVYGMDVWGQGTTVTVSS
VL: QSALTQPASVSGSPGQSITISCTGTSSDVGGYKYVSWYQQHPGKAPKLMIYEVSNRPSGVSSRFSGSKSGYTASLTISGLQAEDEADYYCSSYTNSPTLFYVFGTGTKVTVL
For B7, the “neutralisation IC50” value in test [1] was 0.00347 µg/mL. Moreover, the binding result in test [2] is recorded as “binds”.

B8: JR202 (antibody, V domains shown)
VH: VQLVESGGGVVQPGRSLRLSCAASGFTFTTYTLHWVRQAPGKGLEWVAVISYDGNNKYYADSVKGRFTISRDDSKNTLYVQMNSLRAEDTAVYYCARSIGYYTGVDYWGQGTLVTVSS
VL: NFMLTQPHSVSESPGKTVTISCTGSSGSIAINYVQWYQQRPGSAPITVIYEDNQRPSGVPDRFSGSIDSSSNSASLTISGLKTEDEADYYCQTYHSSTWVFGGGTKLTVL
With B8, in test [1], the “neutralisation IC50” value is 0.00354 µg/mL. Besides, the binding result in test [2] is listed as “binds”.

B9: JR162 (antibody, V domains shown)
VH: EVQLLESGGGLVQQGGSLRLSCAASGFTFSGHAMSWVRQAPGEGLEWVSGISDGGGSTYYADSVRGRFTISRDNSKNTLYLQMNSLRAEDTAVYYCARRGGYCTNTICYTRYYYMDVWGKGTTVTVSS
VL: DIQMTQSPSSVSASVGDRVTITCRSSQDISSWLAWYQQKPGKAPKLLIFAASSLQSGVPSRFSGSGSGTDFTLTISSLQPEDFATYYCQQANSFPLTFGGGTKVEI
In the case of B9, the “neutralisation IC50” value in test [1] is 0.00455 µg/mL. The binding result in test [2] is reported as “binds”.

B10: JR235 (antibody, V domains shown)
VH: EVQLVESGGGLVQPGRSLRLSCAASGFTFDDYAMHWVRQAPGKGLEWVSGISWNSGRIDYADSVKGRFTISRDNAKNSLYLQMNSLRAEDTALYYCAKVSTVTTYLMGYFDLWGRGTLVTVSS
VL: EIVMTQSPATLSVSPGERATLSCRASQSVSSNLAWFQQKPGQAPRLLIYGASTRATGIPARFSGSGSGTEFILTISSLQSEDFAVYYCQLYSYWPPESSFGQGTKLEIK
With B10, the “neutralisation IC50” value in test [1] was above 1 µg/mL. Besides, in test [2], the binding result is recorded as “binds”.

B11: JR090 (antibody, V domains shown)
VH: QVQLQQWGAGLLKPSETLSRTCAVYGGSFSGHYWSWIRQPPGKGLEWIGEINHSGSTNYNPSLKSRVTISVDTSKNQFSLKLSSVTAADTAVYYCARGSRAVAGTAVYFDLWGRGTLVTVSS
VL: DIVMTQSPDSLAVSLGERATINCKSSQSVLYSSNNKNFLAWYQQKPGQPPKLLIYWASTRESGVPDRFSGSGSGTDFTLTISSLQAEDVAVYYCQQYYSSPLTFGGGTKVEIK
For the molecule B11, in test [1], the “neutralisation IC50” value is above 1 µg/mL. In addition, the binding result in test [2] is on record as “binds”.

B12: JR311 (antibody, V domains shown)
VH: QVQLVQSGAEVKKPGASVKVSCKTSGYTFTNYFVHWVRQAPGQGLEWMGWINPNSGGTNYAQTFQAWVTMTRDTSINTAYMELSRLTSDDTAVYYCARDLSFSIVRGVMGYWGQGTLVTVSS
VL: not shown
For the molecule B12, in test [1], the “neutralisation IC50” value is above 1 µg/mL. In addition, in test [2], the binding result is given as “binds”.

B13: JR172 (antibody, V domains shown)
VH: EVQLVESGGGLVQPGRSLRLSCAASGFTFDDYAMHWVRQTPGKGLEWVSSISWNSGSIGYADSVKGRFTISRDNAKNSLYLQMNSLRAEDTALYYCAKDKRIDYSNYGGGFDHWGQGTLVTVSS
VL: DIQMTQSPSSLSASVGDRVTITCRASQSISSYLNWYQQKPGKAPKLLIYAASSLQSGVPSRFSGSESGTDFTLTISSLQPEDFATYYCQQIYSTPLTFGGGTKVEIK
As for B13, the “neutralisation IC50” value in test [1] was above 1 µg/mL. Further, in test [2], the binding result is “binds”.

B14: JR049 (antibody, V domains shown)
VH: EVQLVESGGGLVQPGGSLRLSCAASGFTFSSYDMHWVRQVTGKGLEWVSGIGTAGDTYYRDSVKGRFTISRENAKKSLYLQMNSLRAGDTAVYYCARDNGALYYYGSGAMDVWGKGTTVTVSS
VL: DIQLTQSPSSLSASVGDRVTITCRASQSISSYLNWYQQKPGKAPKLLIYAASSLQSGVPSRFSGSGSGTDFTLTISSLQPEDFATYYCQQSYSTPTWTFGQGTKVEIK
B14: the “neutralisation IC50” value in test [1] is above 1 µg/mL. Also, the binding result in test [2] is listed as “binds”.

B15: JR170 (antibody, V domains shown)
VH: QVQLVQSGAEVRKPGASVKVSCKASRYTFTNNYIHWVRQAPGQGLEWMGIINPSGGSTTYAQKFQGRVTMTGDTSTSTVYMELSSLRSEDTAVYYCARGGFVPAATSYFDYWGQGTLVTVS
VL: QSALTQPRSVSGSPGQSVTISCTGTSSDVGGYNYVSWYQQHPGKAPKLMIYDVSKRPSGVPDRFSGSKSGNTASLTISGLQAEDEADYYCCSYAGSYTLVFGGGTKLTVL
In the case of B15, in test [1], the “neutralisation IC50” value was above 1 µg/mL. The binding result in test [2] is recorded as “binds”.

B16: JR211 (antibody, V domains shown)
VH: QVQLQESGPGLVKPSGTLSLTCAVSGGSISSSHWWNWVRQPPGKGLEWIGEIYHSGSTNYSPSLKSRVTISVDKSKNQFSLKLSSVTAADTAVYYCAKSMRAGPNDGFDYWGQGTLVTVSS
VL: QSALTQPASVSGSPGQSITISCTGTSSDVGGYNYVSWYQQHPGKAPKLMIYDVSNRPSGVSNRFSGSKSGNTASLTISGLQAEDEADYYCSSYTSSSTVVFGGGTKLTVL
On to B16, for which the “neutralisation IC50” value in test [1] is above 1 µg/mL. The binding result in test [2] is reported as “binds”.

B17: JR308 (antibody, V domains shown)
VH: QVQLVESGGGVVQPGRSLRLSCAASGFTFSSYGMHWVRQAPGKGLEWVAVISYDGSNKYYADSLKGRFTISRDNSKNTLYLQMNSLRAEDTAVYYCAKEGRGTYYYGSGSCPGGYWGQGTLVTVSS
VL: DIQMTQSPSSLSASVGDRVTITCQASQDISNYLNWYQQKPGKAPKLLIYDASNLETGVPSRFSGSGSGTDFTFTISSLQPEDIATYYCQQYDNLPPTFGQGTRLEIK
Regarding B17, the “neutralisation IC50” value in test [1] is above 1 µg/mL. Moreover, the binding result in test [2] is “binds”.

B18: JR094 (antibody, V domains shown)
VH: EVQLVQSGAEVKKPGESLKISCKGSGYSFIFYWIGWVRQMPGKGLEWMGIIYPGDSDTRYSPSFQGQVTISADKSISTAYLQWSSLKASDTAMYYCASTVTRSPYDAFDMWGQGTMVTVSS
VL: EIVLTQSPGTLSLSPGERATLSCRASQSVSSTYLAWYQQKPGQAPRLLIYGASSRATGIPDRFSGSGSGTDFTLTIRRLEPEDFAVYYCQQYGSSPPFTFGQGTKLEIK
In the case of B18, the “neutralisation IC50” value in test [1] was above 1 µg/mL. Besides, the binding result in test [2] is “binds”.

B19: JR171 (antibody, V domains shown)
VH: QVQLVQSGAEVKKPGASVKVSCKASGYTFTSYYMHWVRQAPGQGLEWMGIINPSGGSTSYAQKFQGRVTMTRDTSTSTVYMELSSLRSEDTAVYYCARAYDSAPGFDYWGQGTLVTVSS
VL: DIQLTQSPSFLSASVGDRVTITCRASQGISSYLAWYQQKPGKAPKLLIYAASTLQSGVPSRFSGSGSGTEFTLTISSLQPEDFATYYCQQLNSYPSITFGQGTRLEIK
As to B19, the “neutralisation IC50” value in test [1] is above 1 µg/mL. Also, in test [2], the binding result was “binds”.

B20: JR097 (antibody, V domains shown)
VH: QVQLVQSGAEVKKPGASVKVSCKTSAYTFTTYFMHWVRQAPGQGLEWMGIINPSGGSTRYAQKFQGRVTMTRDTSTSTVYMELSGLRSEDTAVYYCARERRPGFYDSSGYSFDYWGQGTLVTVSS
VL: SYELTQPPSVSVAPGKTARITCGGNNIGSKSVHWYQQKPGQAPVLVVYDDSDRPSGIPERFSGSNSGNTATLTISRVEAGDEADYYCQVWDSSSDPVVFGGGTKLTVL
For the molecule B20, in test [1], the “neutralisation IC50” value is above 1 µg/mL. The binding result in test [2] is listed as “binds”.
